{"source": "patent US20200057058A1", "about": "(MIT, published 2020)", "binders": {"B1": {"name": "rcSso7d.SA monolayer (designed binder)", "chain": "MGSIHHHHHHSSGLVPRGSHMCATVKFTYQGEEKQVDISKIKIVARDGQYIDFKYDEGGGAYGYGWVSEKDAPKELLQMLEKQ", "modifications": "EDC/NHS-activated protein coupled to an amine-functionalized silicon wafer", "notes": "also called monomeric rcSso7d.SA; surface-immobilized rcSso7d.SA"}}, "key": {"[1]": {"target": "T1, streptavidin (UniProt P22629 37-163, limits assumed)", "T1 construct": "It was used without a stated label in the sandwich assays; also called SA", "T1 sequence (P22629 37-163 limits assumed)": "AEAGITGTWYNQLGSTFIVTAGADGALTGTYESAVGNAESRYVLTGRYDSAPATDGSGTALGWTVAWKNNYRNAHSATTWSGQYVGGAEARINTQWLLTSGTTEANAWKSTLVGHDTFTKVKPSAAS", "assay": "fluorescent binding curve, labeled SA in 50% urine, 4 h; quadratic fit"}, "[2]": {"target": "monomeric streptavidin variant mSA2", "assay": "fluorescent binding curves, labeled mSA2 in 50% urine or 50% blood serum, 4 h"}, "[3]": {"target": "monomeric streptavidin variant mSA2", "assay": "apparent Kd (Kd,app); fluorescent binding curve, labeled mSA2 in 50% urine, 4 h; quadratic fit"}, "[4]": {"target": "T1, streptavidin", "assay": "fluorescent binding curve, labeled SA in PBS, 4 h exposure; quadratic fit"}, "[5]": {"target": "monomeric streptavidin variant mSA2", "assay": "apparent Kd (Kd,app); fluorescent binding curve, labeled mSA2 in PBS, 4 h exposure; quadratic fit", "description": "(§1) The binding function of rcSso7d.SA oligomer-PNIPAM thin films was measured using fluorescently-labeled monomeric streptavidin (mSA2) and fluorescently-labeled streptavidin (SA). Details for the expression, purification, and fluorescent labeling of mSA2 are provided below. Samples were prepared by serial dilution of SA or mSA2 in PBS (pH 7.4), human urine (diluted to 50% v/v in PBS, pH 7.4), or blood serum (obtained as the supernatant by centrifuging whole blood at 1500×g for 10 minutes, then diluted to 50% v/v in PBS, pH 7.4). 0.5 μL drops of solutions containing serially diluted fluorescent mSA2 and fluorescent SA samples in PBS (pH 7.4) were gently applied to the surface of each bioconjugate thin film. Films were incubated in a sealed chamber saturated with water vapor at room temperature to prevent to prevent drying of the applied fluorescent samples. […] Fluorescence microscopy images were acquired at 4× magnification using a Cy5 filter set and exposure time of 5000 ms on an Olympus IX-81 inverted fluorescence microscope with an AxioCam HRC CCD camera. Fluorescent intensity was calculated using ImageJ software⁶⁷ by determining the average fluorescent signal in a rectangular area of the fluorescent image free of defects and occupying no less than half of the full sample application area.\n(§2) To evaluate how the apparent size-based diffusion properties translated to biosensing capabilities, binding curves were measured using SA and mSA2 solutions in buffer. Binding curves were fit with a quadratic model that is a function of three parameters: the average MFI per binding event a, the total concentration of binding sites [P]T, and the apparent dissociation constant K_{d,app} describing the binding equilibrium between analyte and binding sites within the thin film."}, "[6]": {"target": "monomeric streptavidin variant mSA2", "assay": "fluorescent binding curve, labeled mSA2 in 50% blood serum, 4 h; quadratic fit"}, "[7]": {"target": "T1, streptavidin", "assay": "apparent Kd (Kd,app); fluorescent binding curve, labeled SA in 50% blood serum, 4 h; quadratic fit"}, "[8]": {"target": "monomeric streptavidin variant mSA2", "assay": "fluorescent binding curve, labeled mSA2 in 50% urine, 4 h; quadratic fit"}, "[9]": {"target": "monomeric streptavidin variant mSA2", "assay": "fluorescent binding assay, labeled mSA2 in PBS on monolayer; quadratic curve fit", "description": "The binding function of rcSso7d.SA oligomer-PNIPAM thin films was measured using fluorescently-labeled monomeric streptavidin (mSA2) and fluorescently-labeled streptavidin (SA). Details for the expression, purification, and fluorescent labeling of mSA2 are provided below. Samples were prepared by serial dilution of SA or mSA2 in PBS (pH 7.4), human urine (diluted to 50% v/v in PBS, pH 7.4), or blood serum (obtained as the supernatant by centrifuging whole blood at 1500×g for 10 minutes, then diluted to 50% v/v in PBS, pH 7.4). 0.5 μL drops of solutions containing serially diluted fluorescent mSA2 and fluorescent SA samples in PBS (pH 7.4) were gently applied to the surface of each bioconjugate thin film. […] After 1 hour, films were thoroughly rinsed with water for 10 seconds (a time determined to be sufficient to remove unbound molecules from the film, see FIG. 33, dried under filtered airflow, and immediately analyzed for fluorescent signal. Fluorescence microscopy images were acquired at 4× magnification using a Cy5 filter set and exposure time of 5000 ms on an Olympus IX-81 inverted fluorescence microscope with an AxioCam HRC CCD camera. Fluorescent intensity was calculated using ImageJ software⁶⁷ by determining the average fluorescent signal in a rectangular area of the fluorescent image free of defects and occupying no less than half of the full sample application area. […]"}, "[10]": {"target": "monomeric streptavidin variant mSA2", "assay": "fluorescent binding curve, labeled mSA2 in PBS, 4 h exposure; quadratic fit", "description": "as §1, §2"}, "[11]": {"target": "T1, streptavidin", "assay": "fluorescent binding curve, labeled SA in 50% blood serum, 4 h; quadratic fit"}}, "data": [{"binder": "B1", "values": [{"measurement": "[P]T (total concentration of binding sites)", "setting": "[1]", "value": 0.29, "unit": "nM"}, {"measurement": "sensitivity in the fluids relative to buffer", "setting": "[2]", "value": "≤ 10", "unit": "fold"}, {"measurement": "Kd", "setting": "[3]", "value": 50, "unit": "µM"}, {"measurement": "[P]T (total concentration of binding sites)", "setting": "[4]", "value": 0.36, "unit": "nM"}, {"measurement": "Kd", "setting": "[5]", "value": 3, "unit": "µM"}, {"measurement": "[P]T (total concentration of binding sites)", "setting": "[6]", "value": 0.4, "unit": "nM"}, {"measurement": "Kd", "setting": "[7]", "value": 40, "unit": "µM"}, {"measurement": "[P]T (total concentration of binding sites)", "setting": "[8]", "value": 0.4, "unit": "nM"}, {"measurement": "Kd", "setting": "[9]", "value": 2, "unit": "µM"}, {"measurement": "[P]T (total concentration of binding sites)", "setting": "[10]", "value": 0.35, "unit": "nM"}, {"measurement": "[P]T (total concentration of binding sites)", "setting": "[11]", "value": 0.28, "unit": "nM"}]}]}
